Measured values: patent US20240309103A1 (Regeneron, published 2024)

T1: monkey NPR1 extracellular domain expressed with a C-terminal myc-myc-hexahistidine (mfNPR1-MMH) (monkey, UniProt P16066 33-473 (human entry))
T1 construct: also called monomeric monkey NPR1
T1 chain: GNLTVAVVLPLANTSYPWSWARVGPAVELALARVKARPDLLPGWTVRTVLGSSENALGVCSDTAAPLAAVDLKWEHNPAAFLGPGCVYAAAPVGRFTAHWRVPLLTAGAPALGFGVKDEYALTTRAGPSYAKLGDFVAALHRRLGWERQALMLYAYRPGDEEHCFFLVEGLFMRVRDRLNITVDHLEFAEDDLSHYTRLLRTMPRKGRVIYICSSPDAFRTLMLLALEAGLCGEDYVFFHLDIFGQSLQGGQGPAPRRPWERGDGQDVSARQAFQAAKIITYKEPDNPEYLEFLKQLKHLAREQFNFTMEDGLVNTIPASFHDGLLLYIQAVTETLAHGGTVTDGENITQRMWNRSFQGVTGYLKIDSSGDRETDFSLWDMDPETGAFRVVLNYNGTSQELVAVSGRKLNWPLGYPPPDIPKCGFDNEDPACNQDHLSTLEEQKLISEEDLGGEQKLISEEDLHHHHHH

T2: human NPR1 extracellular domain expressed with a C-terminal mouse IgG2a (hNPR1-mFc) (human)
T2 construct: also called hNPR1-Fc; human NPR1 dimer
T2 chain: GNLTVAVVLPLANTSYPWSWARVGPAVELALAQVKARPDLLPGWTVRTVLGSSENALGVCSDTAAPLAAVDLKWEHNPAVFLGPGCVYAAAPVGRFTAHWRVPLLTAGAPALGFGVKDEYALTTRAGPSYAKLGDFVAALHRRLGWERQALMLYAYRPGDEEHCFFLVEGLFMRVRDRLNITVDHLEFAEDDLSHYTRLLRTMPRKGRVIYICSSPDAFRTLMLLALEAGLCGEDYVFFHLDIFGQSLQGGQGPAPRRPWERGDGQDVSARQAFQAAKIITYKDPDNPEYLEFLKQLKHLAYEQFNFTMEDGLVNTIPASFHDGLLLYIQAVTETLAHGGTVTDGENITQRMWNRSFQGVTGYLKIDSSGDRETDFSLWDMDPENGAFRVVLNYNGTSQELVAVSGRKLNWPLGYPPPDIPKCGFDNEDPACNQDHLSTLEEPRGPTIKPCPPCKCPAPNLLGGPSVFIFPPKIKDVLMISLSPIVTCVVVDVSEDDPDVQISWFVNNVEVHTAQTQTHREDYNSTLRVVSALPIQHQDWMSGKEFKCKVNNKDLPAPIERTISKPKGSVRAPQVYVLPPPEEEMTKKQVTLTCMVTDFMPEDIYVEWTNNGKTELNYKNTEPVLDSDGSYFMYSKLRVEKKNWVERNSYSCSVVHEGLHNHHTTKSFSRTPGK

T3: mouse NPR1 extracellular domain expressed with a C-terminal mouse IgG2a (mNPR1-mFc) (mouse)
T3 chain: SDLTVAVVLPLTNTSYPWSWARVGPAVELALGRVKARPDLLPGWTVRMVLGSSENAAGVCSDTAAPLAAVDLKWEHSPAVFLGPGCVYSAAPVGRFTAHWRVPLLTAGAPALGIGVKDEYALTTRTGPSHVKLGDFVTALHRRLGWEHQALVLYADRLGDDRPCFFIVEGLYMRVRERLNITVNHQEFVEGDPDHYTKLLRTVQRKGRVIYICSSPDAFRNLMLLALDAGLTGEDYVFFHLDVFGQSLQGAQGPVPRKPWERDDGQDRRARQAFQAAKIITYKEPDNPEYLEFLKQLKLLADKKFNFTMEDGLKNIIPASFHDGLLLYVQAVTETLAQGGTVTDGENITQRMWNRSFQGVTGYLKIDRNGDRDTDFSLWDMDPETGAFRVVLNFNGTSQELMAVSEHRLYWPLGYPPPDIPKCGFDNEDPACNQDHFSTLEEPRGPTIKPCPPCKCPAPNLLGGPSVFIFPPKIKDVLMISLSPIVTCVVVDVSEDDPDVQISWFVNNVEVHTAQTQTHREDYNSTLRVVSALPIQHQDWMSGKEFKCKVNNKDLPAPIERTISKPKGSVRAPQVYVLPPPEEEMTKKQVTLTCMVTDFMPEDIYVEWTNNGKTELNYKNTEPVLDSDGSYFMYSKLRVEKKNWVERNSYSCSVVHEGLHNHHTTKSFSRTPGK

B1: mAb22033 (antibody, V domains shown)
VH: QVQLVQSGAEVKKPGASVTVSCKASGYTFTDYYMHWVRQAPGQGLEWMGWIKPNSGGTNSAQRFQGRITMTWDTSISTAYMELSRLRSDDTAVYYCSRGGPVMNYYYYYGMDVWGQGTTVTVSS
VL: NIQMTQSPSSLSASVGDRVTITCRASQSIDSYLNWYQQKPGKAPKLLIYVASSLQSGVPSRFSGSGSGKDFTLTISSLQPEDFATYYCQQSYSIPTFGQGTRLEIK
B2: mAb22035 (antibody, V domains shown)
VH: EVQLVESGGGLVQPGRSLRLSCAASGFTFDDYAMHWVRQAPGKGLEWVSGISWNSGTIGYADSVKGRFTMSRDNAKNSLYLQMNSLRPEDTALYYCAKDMGVSLALWGAFDIWGQGTMVTVSS
VL: DIQMTQSPSSLSASVGDKVTITCRASQNIRTYLNWYQQKPGKAPKVLISTASSLQSGVPSRFSGSGSGTDFTLTISSLQPEDFAVFYCQQSFGIPRTFGQGTKVEIK

Tests used:
[1] = target: T1, monkey NPR1 extracellular domain …; experiment: SPR, mAb captured, 25 C
In short: (§1)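 Biacore 4000 SPR with anti-NPR1 mAbs captured on CM5 chip via amine-coupled mouse anti-human Fc mAb or goat anti-human Fcγ polyclonal; NPR1 reagents flowed as analytes.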

[2] = target: mouse NPR1 extracellular domain expressed with a C-terminal myc-myc-hexahistidine (mNPR1-MMH) (mouse, UniProt P18293 29-469); experiment: SPR, mAb captured, 25 C
In short: as §1

[3] = target: T2, human NPR1 extracellular domain …; experiment: SPR, mAb captured, 25 C
In short: as §1

[4] = target: T4, human NPR1 extracellular domain expressed with a C-terminal myc-myc-hexahistidine (hNPR1-MMH) (human, UniProt P16066 33-473); experiment: SPR, mAb captured, 25 C
T4 construct: also called hNPR.mmh; monomeric human NPR1
T4 sequence (P16066 other isoform, or with tags, fused parts or gaps): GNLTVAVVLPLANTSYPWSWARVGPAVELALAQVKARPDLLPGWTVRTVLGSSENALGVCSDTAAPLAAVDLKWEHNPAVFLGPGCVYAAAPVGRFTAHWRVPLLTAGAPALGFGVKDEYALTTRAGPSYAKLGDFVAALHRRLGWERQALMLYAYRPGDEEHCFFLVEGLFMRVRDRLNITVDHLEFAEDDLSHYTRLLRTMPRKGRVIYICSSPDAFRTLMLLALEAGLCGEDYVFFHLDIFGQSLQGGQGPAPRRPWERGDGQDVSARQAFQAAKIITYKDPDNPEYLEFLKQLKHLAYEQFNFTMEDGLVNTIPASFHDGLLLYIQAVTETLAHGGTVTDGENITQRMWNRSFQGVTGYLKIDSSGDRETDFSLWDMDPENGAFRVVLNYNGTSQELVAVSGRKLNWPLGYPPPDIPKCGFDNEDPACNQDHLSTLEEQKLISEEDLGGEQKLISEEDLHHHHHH
In short: as §1

[5] = target: T3, mouse NPR1 extracellular domain …; experiment: SPR, Tables 21 to 26
In short: as §1

| Binder | 100 nM Ag Bound (RU) [1] | Kd [1] | koff [1] | kon [1] | t½ [1] | 100 nM Ag Bound (RU) [2] | binding result [2] | 100 nM Ag Bound (RU) [3] | Kd [3] | koff [3] | kon [3] | t½ [3] | 100 nM Ag Bound (RU) [4] | Kd [4] | koff [4] | kon [4] | t½ [4] | binding result [5] |
| --- | --- | --- | --- | --- | --- | --- | --- | --- | --- | --- | --- | --- | --- | --- | --- | --- | --- | --- |
| B1 | 79 RU | 16.2 nM | 0.000291 s⁻¹ | 17900 M⁻¹ s⁻¹ | 0.66 h | 0 RU | no binding (tested: 100 nM) | 56 RU | 1.03 nM | 6.38e-05 s⁻¹ | 61800 M⁻¹ s⁻¹ | 3.02 h | 30 RU | 47.5 nM | 0.000406 s⁻¹ | 8550 M⁻¹ s⁻¹ | 0.473 h | no binding |
| B2 | 245 RU | 0.336 nM | 0.000143 s⁻¹ | 426000 M⁻¹ s⁻¹ | 1.35 h | 0 RU | no binding (tested: 100 nM) | 198 RU | 0.365 nM | 8.2e-05 s⁻¹ | 225000 M⁻¹ s⁻¹ | 2.35 h | 210 RU | 0.738 nM | 0.00015 s⁻¹ | 203000 M⁻¹ s⁻¹ | 1.29 h | no binding |
